Measurements: publication PMC5221731

Molecular target: N-terminally hexahistidine-tagged wildtype Chinese hamster BiP, unmodified (non-AMPylated) (Chinese hamster) (UniProt G3I8R9)
Assay: native gel or EMSA

stoichiometry N: 2
Substance: N-terminally hexahistidine-tagged wildtype Chinese hamster BiP, unmodified (non-AMPylated) (from UniProt G3I8R9 19-654) (natural protein)
